# Tests used:
# [1] = biological target: D3H44 light chain Q38R_Q124R_Q160K_T178R; experiment: LCCA, SPR tag readout, L1:L2 DNA 1:3 normalized to 1:1; competitor m19
# [2] = biological target: D3H44 light chain Q38E_Q124E_Q160E_T180E; experiment: LCCA, SPR tag readout, L1:L2 DNA 1:3 normalized to 1:1; competitor m26
# [3] = biological target: D3H44 light chain Q38R_Q124R_Q160K_T178R; experiment: LCCA, SPR tag readout, L1:L2 DNA 1:9 normalized to 1:1; competitor m19
# [4] = biological target: D3H44 light chain Q38E_Q124E_Q160E_T180E; experiment: LCCA, SPR tag readout, L1:L2 DNA 1:9 normalized to 1:1; competitor m26
# [5] = biological target: D3H44 Fab heavy chain L124E_L143E_K145M, C-terminal ABD2-His6 tag; experiment: LCCA co-expression, SPR tag read-out; DNA 1:3 norm. to 1:1; competing light chain m7
# [6] = biological target: D3H44 Fab heavy chain L124E_L143E_K145T, C-terminal ABD2-His6 tag; experiment: as above
# [7] = biological target: D3H44 Fab heavy chain L124R_Q179K, C-terminal ABD2-His6 tag; experiment: as above
# [8] = biological target: D3H44 Fab heavy chain L124E_L143D_K145T, C-terminal ABD2-His6 tag; experiment: LCCA co-expression, SPR tag read-out; DNA 1:3 norm. to 1:1; competing light chain m8
# [9] = biological target: D3H44 Fab heavy chain L124E_L143E_K145M, C-terminal ABD2-His6 tag; experiment: as above
# [10] = biological target: D3H44 Fab heavy chain L124R_Q179K, C-terminal ABD2-His6 tag; experiment: as above
# [11] = biological target: D3H44 Fab heavy chain L124E_L143D_K145M, C-terminal ABD2-His6 tag; experiment: LCCA (co-expression, SPR read-out of light chain tags), L1:L2 DNA 1:3 normalised to 1:1; competitor m9
# [12] = biological target: D3H44 Fab heavy chain L124E_L143D_K145T, C-terminal ABD2-His6 tag; experiment: as above
# [13] = biological target: D3H44 Fab heavy chain L124R_Q179K, C-terminal ABD2-His6 tag; experiment: as above
# [14] = biological target: D3H44 Fab heavy chain L124E_L143D_K145M, C-terminal ABD2-His6 tag; experiment: LCCA (co-expression, SPR read-out of light chain tags), L1:L2 DNA 1:3 normalised to 1:1; competitor m10
# [15] = biological target: D3H44 Fab heavy chain L124R_Q179K, C-terminal ABD2-His6 tag; experiment: as above
# [16] = biological target: D3H44 Fab heavy chain L124E_L143D_K145M, C-terminal ABD2-His6 tag; experiment: LCCA (co-expression, SPR read-out of light chain tags), L1:L2 DNA 1:3 normalised to 1:1; competitor m11
# [17] = biological target: D3H44 Fab heavy chain L124E_L143D_K145T, C-terminal ABD2-His6 tag; experiment: as above
# [18] = biological target: D3H44 Fab heavy chain L124R_Q179K, C-terminal ABD2-His6 tag; experiment: as above
# [19] = biological target: D3H44 Fab heavy chain L124E_L143E_K145M, C-terminal ABD2-His6 tag; experiment: LCCA set 9266 (co-expression; SPR read-out of light-chain tags; L1:L2 DNA 1:3, normalized to 1:1); competing light chain m9
# [20] = biological target: D3H44 Fab heavy chain L124E_L143E_K145T, C-terminal ABD2-His6 tag; experiment: LCCA set 9316 (co-expression; SPR read-out of light-chain tags; L1:L2 DNA 1:3, normalized to 1:1); competing light chain m9
# [21] = biological target: D3H44 Fab heavy chain L124R_Q179K, C-terminal ABD2-His6 tag; experiment: LCCA set 9388 (co-expression; SPR read-out of light-chain tags; L1:L2 DNA 1:3, normalized to 1:1); competing light chain m9
# [22] = biological target: D3H44 Fab heavy chain L124E_L143E_K145M, C-terminal ABD2-His6 tag; experiment: LCCA set 9259 (co-expression; SPR read-out of light-chain tags; L1:L2 DNA 1:3, normalized to 1:1); competing light chain m10
# [23] = biological target: D3H44 Fab heavy chain L124E_L143E_K145T, C-terminal ABD2-His6 tag; experiment: LCCA set 9271 (co-expression; SPR read-out of light-chain tags; L1:L2 DNA 1:3, normalized to 1:1); competing light chain m12
# [24] = biological target: D3H44 Fab heavy chain L124E_L143E_K145T, C-terminal ABD2-His6 tag; experiment: LCCA set 9298 (co-expression; SPR read-out of light-chain tags; L1:L2 DNA 1:3, normalized to 1:1); competing light chain m10
# [25] = biological target: D3H44 Fab heavy chain L124R_D146N_Q179K, C-terminal ABD2-His6 tag; experiment: LCCA set 9350 (co-expression; SPR read-out of light-chain tags; L1:L2 DNA 1:3, normalized to 1:1); competing light chain m12
# [26] = biological target: D3H44 Fab heavy chain L124R_Q179K, C-terminal ABD2-His6 tag; experiment: LCCA set 9384 (co-expression; SPR read-out of light-chain tags; L1:L2 DNA 1:3, normalized to 1:1); competing light chain m10
# [27] = biological target: D3H44 Fab heavy chain L124A_L143F_Q179K, ABD2-His6 tagged; experiment: LCCA, SPR of light chain tags; L1:L2 DNA 1:3 normalized to 1:1; competing light chain m13
# [28] = biological target: D3H44 Fab heavy chain L124A_L143F_Q179K, ABD2-His6 tagged; experiment: LCCA, SPR of light chain tags; L1:L2 DNA 1:3 normalized to 1:1; competing light chain m14
# [29] = biological target: D3H44 Fab heavy chain L124A_Q179K, ABD2-His6 tagged; experiment: as above
# [30] = biological target: D3H44 Fab heavy chain L124W_L143E_K145T_Q179E, ABD2-His6 tagged; experiment: as above
# [31] = biological target: D3H44 Fab heavy chain L124W_L143F_K145T_Q179E, ABD2-His6 tagged; experiment: as above
# [32] = biological target: D3H44 Fab heavy chain L124A_L143F_Q179K, ABD2-His6 tagged; experiment: LCCA, SPR of light chain tags; L1:L2 DNA 1:9 normalized to 1:1; competing light chain m13
# [33] = biological target: D3H44 Fab heavy chain L124W_L143E_K145T_Q179E, ABD2-His6 tagged; experiment: as above
# [34] = biological target: D3H44 Fab heavy chain L143E_K145T_Q179D, ABD2-His6 tagged; experiment: LCCA, SPR of light chain tags; L1:L2 DNA 1:3 normalized to 1:1; competing light chain m19
# [35] = biological target: D3H44 Fab heavy chain S186K, ABD2-His6 tagged; experiment: as above
# [36] = biological target: D3H44 Fab heavy chain S186R, ABD2-His6 tagged; experiment: as above
# [37] = biological target: D3H44 Fab heavy chain L143E_K145T_Q179D, ABD2-His6 tagged; experiment: LCCA, SPR of light chain tags; L1:L2 DNA 1:9 normalized to 1:1; competing light chain m19
# [38] = biological target: D3H44 Fab heavy chain S186K, ABD2-His6 tagged; experiment: as above
# [39] = biological target: D3H44 Fab heavy chain L124A_L143F_Q179K, ABD2-His6 tagged; experiment: LCCA, SPR of light chain tags; L1:L2 DNA 1:3 normalized to 1:1; competing light chain m12
# [40] = biological target: D3H44 Fab heavy chain L124W_L143E_K145T_Q179E, ABD2-His6 tagged; experiment: as above
# [41] = biological target: D3H44 Fab heavy chain L124W_L143E_K145T_Q179E, ABD2-His6 tagged; experiment: LCCA, SPR of light chain tags; L1:L2 DNA 1:9 normalized to 1:1; competing light chain m12
# [42] = biological target: D3H44 Fab heavy chain L124W_L143F_K145T_Q179E, ABD2-His6 tagged; experiment: LCCA, SPR of light chain tags; L1:L2 DNA 1:3 normalized to 1:1; competing light chain m12
# [43] = biological target: D3H44 Fab heavy chain L124W_L143F_K145T_Q179E, ABD2-His6 tagged; experiment: LCCA, SPR of light chain tags; L1:L2 DNA 1:3 normalized to 1:1; competing light chain m15
# [44] = biological target: tissue factor (TF) antigen (UniProt P13726); experiment: SPR (ProteOn XPR36), Fab captured on anti-penta His, TF injected, 1:1 model
# [45] = biological target: tissue factor (TF) antigen (UniProt P13726); experiment: SPR (ProteOn XPR36), Fab captured on anti-penta His, TF injected at 0.74-60 nM, 1:1 model; median
substance,measurement,setting,value
D3H44 Fab heavy chain Q39E_L143E_K145T_H172R_Q179E,H1L1:H1L2 normalized median ratio,[1],97%
same,H1L1:H1L2 normalized median ratio,[2],3%
same,H1L1:H1L2 normalized median ratio,[3],95%
same,H1L1:H1L2 normalized median scalar value ln(r1/f1),[3],2.96
same,H1L1:H1L2 normalized median ratio,[4],5%
"D3H44 light chain Q124E_V133G_S176D_T178E_T180E, N-terminal HA or FLAG tag",H1L1:H1L2 normalized median ratio (% (ratio normalized to 100)),[5],8
same,H1L1:H1L2 normalized median ratio (% (ratio normalized to 100)),[6],5
same,H2L2:H2L1 normalized median ratio (% (ratio normalized to 100)),[7],92
same,H1L1:H1L2 normalized median ratio (% (ratio normalized to 100)),[8],8
same,H1L1:H1L2 normalized median ratio (% (ratio normalized to 100)),[9],5
same,H2L2:H2L1 normalized median ratio (% (ratio normalized to 100)),[10],92
same,H1L1:H1L2 normalized median ratio,[11],8%
same,H1L1:H1L2 normalized median ratio,[12],8%
same,H2L2:H2L1 normalized median ratio,[13],92%
same,H1L1:H1L2 normalized median ratio,[14],9%
same,H2L2:H2L1 normalized median ratio,[15],92%
same,H1L1:H1L2 normalized median ratio,[16],10%
same,H1L1:H1L2 normalized median ratio,[17],11%
same,H2L2:H2L1 normalized median ratio,[18],93%
same,H1L1:H1L2 normalized median ratio (H1L2 part),[19],16%
same,H1L1:H1L2 normalized median ratio (H1L2 part),[20],12%
same,H2L2:H2L1 normalized median ratio (H2L2 part),[21],92%
same,H1L1:H1L2 normalized median ratio (H1L2 part),[22],16%
same,H1L1:H1L2 normalized median ratio (H1L2 part),[23],5%
same,H1L1:H1L2 normalized median ratio (H1L2 part),[24],12%
same,H2L2:H2L1 normalized median ratio (H2L2 part),[25],82%
same,H2L2:H2L1 normalized median ratio (H2L2 part),[26],92%
"D3H44 light chain Q124E_V133W_S176T_T178E_T180E, HA or FLAG tagged",H1L1:H1L2 normalized median ratio,[27],95%
same,H1L1:H1L2 normalized median scalar value ln(r1/f1),[27],2.88
same,H1L1:H1L2 normalized median ratio,[28],97%
same,H1L1:H1L2 normalized median scalar value ln(r1/f1),[28],3.61
same,H1L1:H1L2 normalized median ratio,[29],97%
same,H1L1:H1L2 normalized median scalar value ln(r1/f1),[29],3.59
same,H2L2:H2L1 normalized median ratio,[30],22%
same,H2L2:H2L1 normalized median ratio,[31],30%
same,H1L1:H1L2 normalized median scalar value ln(r1/f1),[32],2.69
same,H2L2:H2L1 normalized median ratio,[33],8%
"D3H44 light chain Q124K_T178R, HA or FLAG tagged",H1L1:H1L2 normalized median ratio,[34],85%
same,H1L1:H1L2 normalized median scalar value ln(r1/f1),[34],1.74
same,H2L2:H2L1 normalized median ratio,[35],2%
same,H2L2:H2L1 normalized median ratio,[36],3%
same,H1L1:H1L2 normalized median ratio,[37],89%
same,H1L1:H1L2 normalized median scalar value ln(r1/f1),[37],2.05
same,H2L2:H2L1 normalized median ratio,[38],5%
"D3H44 light chain Q124K_V133A_S176T_T178R, HA or FLAG tagged",H1L1:H1L2 normalized median ratio,[39],5%
same,H2L2:H2L1 normalized median ratio,[40],89%
same,H2L2:H2L1 normalized median ratio,[41],92%
"D3H44 light chain S131K_V133A_S176T_T178L, HA or FLAG tagged",H2L2:H2L1 normalized median ratio,[40],78%
same,H2L2:H2L1 normalized median ratio,[42],70%
same,H2L2:H2L1 normalized median ratio,[43],69%
wild-type D3H44 Fab heterodimer constructs (Fab constructs containing HA tag or FLAG tag),fold difference between the maximum and minimum KD values,[44],2.6 fold
same,Kd,[45],0.15 nM
